Source: patent US20260008817A1, “CYCLIC PEPTIDE OR SALT THEREOF, AND USES THEREOF” (FUJIFILM Corporation, priority 2023, published 2026)

Assays:
[1] = biological target: T1, Recombinant Human FGFR1 alpha (IIIc) Fc Chimera Protein (Homo sapiens, UniProt P11362); experiment: SPR binding affinity of chemically synthesized cyclic peptide to immobilized FGFR; settings: SPR binding amount at 10 nmol/L cyclic peptide, 25° C.; chemically synthesized product
T1 construct: purchased R&D systems 658-FR-050
Method: The binding affinity of the cyclic peptide to FGFR was evaluated using a surface plasmon resonance (SPR) method.
(§1) The binding affinity of the chemically synthesized cyclic peptide to FGFR was evaluated by the following procedure.
A CM5 sensor chip (Cytiva, 29149603) was set in Biacore-T200 (manufactured by Cytiva) which is a surface plasmon resonance device, and an HBS-EP buffer (Cytiva, BR100826) was added as a running buffer at a flow rate of 10 μL/min to equilibrate the flow channel. Next, 70 μL of a mixed aqueous solution of 0.2 mol/L 1-(3-dimethylaminopropyl)-3-ethylcarbodiimide (EDC) and 0.05 mol/L N-hydroxysuccinimide (NHS) was added to activate the sensor chip. Then, Recombinant Human FGFR1 alpha (IIIc) Fc Chimera Protein CF (R&D systems, 658-FR-050) prepared at 50 nmol/L in an Acetate 4.5 buffer (Cytiva, BR100350) was added thereto to perform immobilization at about 5000 RU. Thereafter, the blocking treatment was performed with an ethanolamine solution. In addition, in another flow channel of the same sensor chip, blocking treatment was performed immediately after activation without immobilizing FGFR.
A cyclic peptide diluted to 10 nmol/L using HBS-EP was added to each flow channel of the FGFR-immobilized sensor chip produced above at 25° C. for 10 minutes, then HBS-EP was allowed to flow as a running buffer for 30 minutes, and the binding of the cyclic peptide to FGFR was measured. Thereafter, a regeneration treatment of removing the bound cyclic peptide was performed by repeating the flow of a regeneration liquid in which sodium chloride powder was dissolved in Glysine 1.5 (Cytiva, BR100354) to a final concentration of 0.15 mol/L for 1 minute in each flow channel twice. The binding amount of the cyclic peptide was evaluated from the difference between the measured value of Biacore-T200 in the flow channel in which FGFR was immobilized and the measured value of Biacore-T200 in the flow channel in which FGFR was not immobilised, in a case where a 10 nmol/L cyclic peptide was allowed to flow.
The binding amount of the cyclic peptide evaluated above was normalized to the binding amount of the cyclic peptide molecules per one molecule of FGFR using the molecular weights of the cyclic peptide and FGFR, and the binding affinity to FGFR was evaluated according to the following evaluation criteria. The evaluation result preferably satisfies the evaluation criteria A, B, or C.
• A: The binding amount is 0.7 molecules of the cyclic peptide/one molecule of FGFR or more. • B: The binding amount is 0.5 molecules of the cyclic peptide/one molecule of FGFR or more and less than 0.7 molecules of cyclic peptide/one molecule of FGFR. • C: The binding amount is 0.1 molecules of cyclic peptide/one molecule of FGFR or more and less than 0.5 molecules of cyclic peptide/one molecule of FGFR. • D: The binding amount is less than 0.1 molecules of the cyclic peptide/one molecule of FGFR.

[2] = biological target: T2, FGFR1 Protein, Human, Recombinant (His Tag) (Homo sapiens, UniProt P11362); experiment: SPR FGFR versatility, FGFR1 on immobilized cyclic peptide; format: binding; settings: 1 μmol/L FGFR, 25° C.
T2 construct: His tag; purchased Sino Biological 10616-H08H
T2 sequence (P11362 22-285 isoform P11362-14 limits assumed): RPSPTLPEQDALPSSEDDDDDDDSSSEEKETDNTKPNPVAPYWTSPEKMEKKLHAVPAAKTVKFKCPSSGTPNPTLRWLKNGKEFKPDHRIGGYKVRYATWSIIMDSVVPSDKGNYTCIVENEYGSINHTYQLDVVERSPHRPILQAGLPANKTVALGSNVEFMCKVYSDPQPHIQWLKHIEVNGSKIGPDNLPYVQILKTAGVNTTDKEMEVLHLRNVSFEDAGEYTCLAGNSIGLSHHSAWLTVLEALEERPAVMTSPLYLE
Method: The binding of the cyclic peptide to various types of FGFRs was evaluated using a surface plasmon resonance (SPR) method.
as §1
A CM5 sensor chip (Cytiva, 29149603) was set in Biacore-T200 (manufactured by Cytiva) which is a surface plasmon resonance device, and an HBS-EP buffer (Cytiva, BR100826) was added as a running buffer at a flow rate of 10 μL/min to equilibrate the flow channel. Next, 70 μL of a mixed aqueous solution of 0.2 mol/L 1-(3-dimethylaminopropyl)-3-ethylcarbodiimide (EDC) and 0.05 mol/L N-hydroxysuccinimide (NHS) was added to activate the sensor chip. Then, a cyclic peptide prepared to 2 mg/mL in HBS-EP buffer was added thereto to perform immobilization at about 200 RU. […]
After various FGFRs (FGFR1 Protein, Human, Recombinant (His Tag) (Sino Biological, 10616-H08H), FGFR3 Protein, Human, Recombinant (ECD, His Tag) (Sino Biological, 16044-H08H), FGFR4 Protein, Human, Recombinant (His Tag) (Sino Biological, 10538-H08H)) diluted with HBS-EP to 1 μmol/L at 25° C. was added to each flow channel of the cyclic peptide-immobilized sensor chip prepared above, for 10 minutes, HBS-EP was allowed to flow as a running buffer for 30 minutes, and the binding of various FGFRs to the cyclic peptide was measured. […]

T1 sequence (P11362 with tags, fused parts or gaps limits assumed): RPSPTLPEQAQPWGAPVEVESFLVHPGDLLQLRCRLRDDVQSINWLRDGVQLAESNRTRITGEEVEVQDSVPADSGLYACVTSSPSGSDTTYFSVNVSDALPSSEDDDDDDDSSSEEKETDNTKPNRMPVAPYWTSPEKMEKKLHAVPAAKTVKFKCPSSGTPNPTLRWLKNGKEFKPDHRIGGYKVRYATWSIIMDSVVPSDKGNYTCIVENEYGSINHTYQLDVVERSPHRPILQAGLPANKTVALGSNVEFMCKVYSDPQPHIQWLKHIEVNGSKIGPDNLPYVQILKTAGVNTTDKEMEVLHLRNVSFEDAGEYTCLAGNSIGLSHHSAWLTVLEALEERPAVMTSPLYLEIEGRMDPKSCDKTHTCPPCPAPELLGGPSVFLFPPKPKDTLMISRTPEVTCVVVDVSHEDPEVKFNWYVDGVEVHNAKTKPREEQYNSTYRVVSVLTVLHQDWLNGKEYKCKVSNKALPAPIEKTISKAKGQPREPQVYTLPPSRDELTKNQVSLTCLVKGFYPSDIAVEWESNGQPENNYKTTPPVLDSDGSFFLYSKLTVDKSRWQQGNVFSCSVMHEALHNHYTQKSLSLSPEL

## 335 (ACVWTFDRHAQEISQALHKVKKK; not fully specified; Description of Artificial Sequence: Cyclic peptide) [compound 335]
[1]
  Evaluation result of binding affinity to FGFR: A (The binding amount is 0.7 molecules of the cyclic peptide/one molecule of FGFR or more.)
[2]
  Evaluation result of binding affinity to FGFR1: A (The binding amount is 0.05 molecules of FGFR/one molecule of the cyclic peptide or more.)
